Measurements as given in publication PMC2760576.

Experiments:
[1] = target: integrin α6β1 (human (endogenous in FHCC98 and SMMC-7721)) (UniProt P05556)
[2] = target: integrin α6β1 (human (endogenous in FHCC98 and SMMC-7721)) (UniProt P05556); remark: listed apart in the source
[3] = target: integrin α6β1 (human (endogenous in FHCC98 and SMMC-7721)) (UniProt P05556); remark: listed apart in the source
[4] = target: integrin α6β1 (human (endogenous in FHCC98 and SMMC-7721)) (UniProt P05556); remark: listed apart in the source

Chain of UniProt P05556 (P05556 whole entry, looked up): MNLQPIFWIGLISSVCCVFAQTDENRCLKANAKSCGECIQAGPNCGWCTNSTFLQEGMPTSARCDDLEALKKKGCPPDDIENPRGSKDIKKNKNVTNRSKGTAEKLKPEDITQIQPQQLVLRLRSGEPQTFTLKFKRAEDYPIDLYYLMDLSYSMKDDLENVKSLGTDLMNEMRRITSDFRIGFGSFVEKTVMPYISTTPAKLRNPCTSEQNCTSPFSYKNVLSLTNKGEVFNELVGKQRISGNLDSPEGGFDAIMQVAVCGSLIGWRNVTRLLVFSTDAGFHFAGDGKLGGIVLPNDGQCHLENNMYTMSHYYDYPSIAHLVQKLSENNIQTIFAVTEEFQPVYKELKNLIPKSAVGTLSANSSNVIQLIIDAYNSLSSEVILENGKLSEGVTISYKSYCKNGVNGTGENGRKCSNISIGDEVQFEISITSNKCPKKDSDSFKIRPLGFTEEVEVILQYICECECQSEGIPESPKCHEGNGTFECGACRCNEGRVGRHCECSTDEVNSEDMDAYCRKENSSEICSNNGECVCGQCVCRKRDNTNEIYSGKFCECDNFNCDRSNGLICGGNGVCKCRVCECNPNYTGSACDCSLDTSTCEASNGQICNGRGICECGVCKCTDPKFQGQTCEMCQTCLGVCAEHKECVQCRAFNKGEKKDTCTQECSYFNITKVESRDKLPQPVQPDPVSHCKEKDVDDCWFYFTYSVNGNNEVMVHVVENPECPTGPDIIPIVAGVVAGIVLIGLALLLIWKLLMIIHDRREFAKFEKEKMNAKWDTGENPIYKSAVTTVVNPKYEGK

Matrigel invasion of 7721 cells, reduction of invasive cell numbers versus the blank control group; anti-α6 mAb [1]: 27.2% | Matrigel invasion of FHCC98 cells, reduction of invasive cell numbers versus the blank group; sncRNA + GoH3 + 3S3 [2]: 34.9% | Matrigel invasion of FHCC98 cells, reduction of invasive cell numbers versus the blank group; sncRNA + anti-α6 mAb GoH3 [2]: 32.4% | Matrigel invasion of FHCC98 cells, reduction of invasive cell numbers versus the blank group; sncRNA + anti-β1 mAb 3S3 [2]: 31.1% | gelatin zymography, reduction of the density of MMPs of FHCC98 cells versus the blank group; sncRNA + GoH3 + 3S3 [3]: 29.1% | gelatin zymography, reduction of the density of MMPs of FHCC98 cells versus the blank group; sncRNA + anti-α6 mAb GoH3 [3]: 32.5% | gelatin zymography, reduction of the density of MMPs of FHCC98 cells versus the blank group; sncRNA + anti-β1 mAb 3S3 [3]: 34.8% | gelatin zymography, reduction of MMP density of 7721 cells versus the blank control group; anti-α6 mAb [4]: 22.8% | gelatin zymography, reduction of the density of MMPs of FHCC98 cells versus the blank control group; anti-α6 mAb [4]: 18.8%
Substance: HAb18G/CD147 (from UniProt P35613 22-385) (natural protein)
